Test results reported in patent US20090054344A1.
Values belong to the substance of their own block, whether it stands above or below them.

Experiments:
[1] = molecular target: human αvβ3 protein (CHEMICON), soluble (human) (UniProt P06756); experiment: cell-based or functional assay
[2] = molecular target: αvβ3 integrin on HUVEC cells (human) (UniProt P06756); experiment: HUVEC adhesion to collagen Type IV-coated wells (10 µg/ml); 10 µg/ml antibody; the blocked ligand is type IV collagen
[3] = molecular target: αvβ3 integrin on HUVEC cells (human) (UniProt P06756); experiment: HUVEC attachment to plates coated with E. coli-expressed Tumstatin-44-131 (10 µg/ml); 10 µg/ml antibody; the blocked ligand is Tumstatin-44-131
[4] = molecular target: αvβ3 integrin on C-PAE cells (bovine) (UniProt P80746); experiment: C-PAE attachment to Tum-1-coated plates; the blocked ligand is Tum-1
[5] = molecular target: αvβ3 integrin on HUVEC cells (human) (UniProt P06756); experiment: HUVEC attachment to Tumstatin-coated plates (10 µg/ml); 10 µg/ml antibody, against control IgG; the blocked ligand is Tumstatin
[6] = molecular target: αvβ3 integrin on C-PAE cells (bovine) (UniProt P80746); experiment: C-PAE attachment to Tum-2-coated plates; the blocked ligand is Tum-2
[7] = molecular target: αvβ3 integrin on HUVEC cells (human) (UniProt P06756); experiment: HUVEC binding to vitronectin-coated plates; 10 µg/ml antibody; the blocked ligand is vitronectin
[8] = molecular target: αvβ3 integrin on HUVEC cells (human) (UniProt P06756); experiment: HUVEC attachment to Tumstatin-coated plates; αvβ3 antibody used TOGETHER with β1 antibody; the blocked ligand is Tumstatin
[9] = molecular target: αvβ3 integrin on C-PAE cells (bovine) (UniProt P80746); experiment: C-PAE attachment to Tum-4-coated plates; the blocked ligand is Tum-4
[10] = molecular target: integrin β1 subunit on HUVEC cells (human) (UniProt P05556); experiment: HUVEC adhesion to collagen Type IV-coated wells (10 µg/ml); 10 µg/ml antibody; the blocked ligand is type IV collagen
[11] = molecular target: integrin β1 subunit on HUVEC cells (human) (UniProt P05556); experiment: HUVEC attachment to plates coated with E. coli-expressed Tumstatin-44-131 (10 µg/ml); 10 µg/ml antibody; the blocked ligand is Tumstatin-44-131
[12] = molecular target: integrin β1 subunit on HUVEC cells (human) (UniProt P05556); experiment: HUVEC binding to type IV collagen-coated plates; 10 µg/ml antibody, against control IgG; the blocked ligand is type IV collagen
[13] = molecular target: integrin β1 subunit on HUVEC cells (human) (UniProt P05556); experiment: HUVEC adhesion to Arresten-coated wells (10 µg/ml); cells pre-mixed with 10 µg/ml antibody; the blocked ligand is Arresten
[14] = molecular target: integrin β1 subunit on HUVEC cells (human) (UniProt P05556); experiment: HUVEC attachment to Tumstatin-coated plates (10 µg/ml); 10 µg/ml antibody, against control IgG; the blocked ligand is Tumstatin

Chain of αvβ3 integrin on C-PAE cells (bovine) (P80746 31-1048): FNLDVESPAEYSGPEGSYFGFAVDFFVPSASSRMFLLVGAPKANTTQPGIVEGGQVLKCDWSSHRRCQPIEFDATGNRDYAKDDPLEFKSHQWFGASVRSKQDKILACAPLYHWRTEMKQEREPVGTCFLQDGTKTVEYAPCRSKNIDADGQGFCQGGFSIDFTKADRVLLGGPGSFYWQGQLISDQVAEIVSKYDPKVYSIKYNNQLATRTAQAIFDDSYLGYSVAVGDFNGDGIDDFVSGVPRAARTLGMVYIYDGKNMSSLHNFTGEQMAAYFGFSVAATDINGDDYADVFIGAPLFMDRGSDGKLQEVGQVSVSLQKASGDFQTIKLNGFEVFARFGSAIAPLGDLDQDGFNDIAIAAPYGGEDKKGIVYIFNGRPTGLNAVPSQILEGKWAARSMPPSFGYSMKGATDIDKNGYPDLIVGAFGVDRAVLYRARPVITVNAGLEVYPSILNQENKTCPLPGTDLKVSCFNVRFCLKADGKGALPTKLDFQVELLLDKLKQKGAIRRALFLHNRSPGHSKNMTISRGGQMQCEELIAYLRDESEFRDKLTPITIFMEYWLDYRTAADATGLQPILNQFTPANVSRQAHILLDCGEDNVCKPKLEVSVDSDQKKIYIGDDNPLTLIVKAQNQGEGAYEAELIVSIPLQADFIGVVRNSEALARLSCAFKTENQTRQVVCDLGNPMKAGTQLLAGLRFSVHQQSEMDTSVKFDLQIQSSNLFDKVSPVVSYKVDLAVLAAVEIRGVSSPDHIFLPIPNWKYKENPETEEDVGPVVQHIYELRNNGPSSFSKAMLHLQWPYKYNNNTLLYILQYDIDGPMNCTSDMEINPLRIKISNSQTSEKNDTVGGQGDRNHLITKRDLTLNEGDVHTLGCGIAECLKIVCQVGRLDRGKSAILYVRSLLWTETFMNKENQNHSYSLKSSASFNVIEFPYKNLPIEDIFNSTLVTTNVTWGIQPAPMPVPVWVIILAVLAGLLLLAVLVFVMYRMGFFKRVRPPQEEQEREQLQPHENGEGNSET
Chain of integrin β1 subunit on HUVEC cells (human) (P05556 21-798): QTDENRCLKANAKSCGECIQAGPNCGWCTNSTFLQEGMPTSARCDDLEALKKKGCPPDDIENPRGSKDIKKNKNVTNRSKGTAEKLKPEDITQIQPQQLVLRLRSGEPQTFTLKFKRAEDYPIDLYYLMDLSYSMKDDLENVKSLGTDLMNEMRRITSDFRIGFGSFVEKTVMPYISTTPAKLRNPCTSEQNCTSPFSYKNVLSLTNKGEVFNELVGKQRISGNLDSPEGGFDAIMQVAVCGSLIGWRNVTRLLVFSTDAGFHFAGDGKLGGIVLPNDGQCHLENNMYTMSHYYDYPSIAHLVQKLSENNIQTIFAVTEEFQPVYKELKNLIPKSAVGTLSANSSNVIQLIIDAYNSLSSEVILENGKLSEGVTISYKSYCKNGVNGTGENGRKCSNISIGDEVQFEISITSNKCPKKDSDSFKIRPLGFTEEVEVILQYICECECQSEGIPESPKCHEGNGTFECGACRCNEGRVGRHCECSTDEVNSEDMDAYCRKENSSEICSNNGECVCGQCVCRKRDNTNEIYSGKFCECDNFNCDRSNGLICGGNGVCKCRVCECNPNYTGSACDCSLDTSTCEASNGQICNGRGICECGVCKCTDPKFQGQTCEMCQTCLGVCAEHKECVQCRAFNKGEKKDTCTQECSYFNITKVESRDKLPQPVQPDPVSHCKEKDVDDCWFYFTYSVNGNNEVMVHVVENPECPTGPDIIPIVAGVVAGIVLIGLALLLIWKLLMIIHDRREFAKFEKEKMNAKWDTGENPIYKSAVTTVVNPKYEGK
Chain of αvβ3 integrin on HUVEC cells (human) (P06756 31-1048, chain 1 of 2): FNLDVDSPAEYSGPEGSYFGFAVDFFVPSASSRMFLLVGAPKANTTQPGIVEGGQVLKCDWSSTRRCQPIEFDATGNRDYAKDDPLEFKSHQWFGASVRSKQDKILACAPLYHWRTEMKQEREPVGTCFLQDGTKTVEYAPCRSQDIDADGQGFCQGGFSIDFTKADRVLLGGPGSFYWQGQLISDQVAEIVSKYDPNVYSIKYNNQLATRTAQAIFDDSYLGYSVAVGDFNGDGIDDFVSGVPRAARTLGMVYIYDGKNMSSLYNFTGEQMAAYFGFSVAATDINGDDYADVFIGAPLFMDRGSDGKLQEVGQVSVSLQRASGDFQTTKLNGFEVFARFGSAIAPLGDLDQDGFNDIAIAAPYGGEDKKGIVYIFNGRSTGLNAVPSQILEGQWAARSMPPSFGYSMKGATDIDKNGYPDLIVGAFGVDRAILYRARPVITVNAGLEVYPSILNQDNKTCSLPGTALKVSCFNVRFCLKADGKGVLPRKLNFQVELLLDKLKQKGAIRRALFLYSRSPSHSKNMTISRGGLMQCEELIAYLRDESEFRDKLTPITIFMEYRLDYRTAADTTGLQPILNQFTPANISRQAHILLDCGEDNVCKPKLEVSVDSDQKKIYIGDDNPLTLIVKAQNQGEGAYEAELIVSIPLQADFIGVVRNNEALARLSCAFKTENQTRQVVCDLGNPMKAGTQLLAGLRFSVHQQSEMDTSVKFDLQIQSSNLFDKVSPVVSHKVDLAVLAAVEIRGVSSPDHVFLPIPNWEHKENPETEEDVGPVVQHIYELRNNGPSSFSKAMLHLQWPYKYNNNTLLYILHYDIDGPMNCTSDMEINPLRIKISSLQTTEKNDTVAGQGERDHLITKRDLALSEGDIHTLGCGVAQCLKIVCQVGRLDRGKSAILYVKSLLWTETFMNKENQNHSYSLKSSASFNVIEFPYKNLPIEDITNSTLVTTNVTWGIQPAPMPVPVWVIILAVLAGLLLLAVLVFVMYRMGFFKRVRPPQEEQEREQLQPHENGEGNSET
Chain of αvβ3 integrin on HUVEC cells (human) (P05106 27-788, chain 2 of 2, further chain): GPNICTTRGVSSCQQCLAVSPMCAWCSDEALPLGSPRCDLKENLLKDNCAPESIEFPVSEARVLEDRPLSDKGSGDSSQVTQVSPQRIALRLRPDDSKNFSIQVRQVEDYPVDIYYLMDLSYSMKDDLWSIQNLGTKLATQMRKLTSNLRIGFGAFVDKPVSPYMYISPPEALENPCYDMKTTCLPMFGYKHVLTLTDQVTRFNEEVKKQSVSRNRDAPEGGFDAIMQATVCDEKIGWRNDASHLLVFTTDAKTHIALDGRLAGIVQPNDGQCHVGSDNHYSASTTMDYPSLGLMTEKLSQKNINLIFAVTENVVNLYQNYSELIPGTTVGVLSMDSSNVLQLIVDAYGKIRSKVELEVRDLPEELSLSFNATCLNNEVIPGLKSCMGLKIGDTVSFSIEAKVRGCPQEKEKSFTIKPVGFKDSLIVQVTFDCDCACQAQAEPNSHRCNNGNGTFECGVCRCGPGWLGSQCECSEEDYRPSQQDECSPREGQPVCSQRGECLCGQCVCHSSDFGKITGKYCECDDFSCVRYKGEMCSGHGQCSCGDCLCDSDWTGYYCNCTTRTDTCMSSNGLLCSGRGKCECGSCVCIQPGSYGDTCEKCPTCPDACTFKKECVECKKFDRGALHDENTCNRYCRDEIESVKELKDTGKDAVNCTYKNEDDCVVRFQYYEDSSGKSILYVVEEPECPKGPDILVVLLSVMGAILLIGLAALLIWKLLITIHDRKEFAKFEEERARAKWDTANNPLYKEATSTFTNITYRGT

recovery of Tum-2's anti-proliferative effect on C-PAE cells after pre-incubation with αvβ3 protein (methylene blue) [1]: 74.1%
Substance: Tum-2 (from UniProt Q01955 1427-1558) (ligand)

recovery of the Tum-4-induced anti-proliferative effect on WM-164 melanoma cells after pre-incubation with αvβ3 protein (methylene blue) [1]: 76.7%
Substance: Tum-4 (from UniProt Q01955 1607-1670) (ligand)

% inhibition of cell adhesion [2]: 15%
% inhibition of cell attachment [3]: 47.1%
% inhibition of cell attachment [4]: 55.9%
% inhibition of cell attachment [5]: 80%
% inhibition of cell attachment [6]: 69.8%
% inhibition of cell binding [7]: 61%
% inhibition of cell attachment [8]: 91%
% inhibition of cell attachment [9]: 62.6%
Substance: monoclonal antibody to αvβ3 integrin (clone LM609, CHEMICON)

% inhibition of cell adhesion [10]: 40%
% inhibition of cell attachment [11]: 47.5%
% inhibition of cell binding [12]: 53%
% inhibition of cell adhesion [13]: 70%
% inhibition of cell attachment [14]: 54%
Substance: mouse monoclonal antibody to the human β1 integrin subunit (clone P4C10)
